Source: patent US20260234255A1 (Genmab, published 2026)

T1: human CD30 (human, UniProt P28908 19-595)
T1 construct: The same molecule is used for CD30 on HL/ALCL/NHL cell lines; also called huCD30; TNFRSF8
T1 sequence: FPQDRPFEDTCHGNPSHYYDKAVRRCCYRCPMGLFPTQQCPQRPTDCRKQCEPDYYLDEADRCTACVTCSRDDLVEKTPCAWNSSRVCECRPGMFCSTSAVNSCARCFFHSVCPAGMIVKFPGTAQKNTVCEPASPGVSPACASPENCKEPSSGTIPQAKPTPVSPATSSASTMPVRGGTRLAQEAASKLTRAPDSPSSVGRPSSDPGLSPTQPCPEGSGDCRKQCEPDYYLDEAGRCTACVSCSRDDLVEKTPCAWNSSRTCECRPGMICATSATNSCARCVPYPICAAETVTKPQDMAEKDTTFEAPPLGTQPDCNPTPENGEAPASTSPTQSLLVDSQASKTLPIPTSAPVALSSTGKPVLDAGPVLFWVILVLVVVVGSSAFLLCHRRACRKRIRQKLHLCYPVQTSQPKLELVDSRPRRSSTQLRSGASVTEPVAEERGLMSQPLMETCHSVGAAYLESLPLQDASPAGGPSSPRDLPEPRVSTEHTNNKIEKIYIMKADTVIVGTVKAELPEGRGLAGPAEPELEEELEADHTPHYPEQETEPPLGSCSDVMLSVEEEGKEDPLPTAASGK

T2: rhesus monkey (Macaca mulatta) CD30 (rhesus monkey, UniProt P28908 19-595 (human entry))
T2 construct: also called mmCD30
T2 chain: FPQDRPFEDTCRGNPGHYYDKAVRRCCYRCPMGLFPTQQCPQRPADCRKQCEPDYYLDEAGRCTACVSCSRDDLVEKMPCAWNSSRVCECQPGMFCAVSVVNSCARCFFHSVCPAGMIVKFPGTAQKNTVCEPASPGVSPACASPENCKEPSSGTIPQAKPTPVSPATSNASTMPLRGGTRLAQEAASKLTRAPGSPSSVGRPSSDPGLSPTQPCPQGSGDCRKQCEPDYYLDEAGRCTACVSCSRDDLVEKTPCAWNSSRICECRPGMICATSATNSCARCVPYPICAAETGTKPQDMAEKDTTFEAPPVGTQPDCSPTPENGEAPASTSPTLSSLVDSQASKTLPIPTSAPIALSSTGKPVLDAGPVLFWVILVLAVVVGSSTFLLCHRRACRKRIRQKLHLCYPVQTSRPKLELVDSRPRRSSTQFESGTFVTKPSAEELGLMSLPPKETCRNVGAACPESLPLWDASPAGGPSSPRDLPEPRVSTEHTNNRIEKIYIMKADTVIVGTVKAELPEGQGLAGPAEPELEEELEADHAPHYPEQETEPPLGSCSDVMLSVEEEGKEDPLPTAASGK


Assays:
human CD30 [1] = target: T1, human CD30; test: flow cytometry, KI-JK cells, experiment N = 2
human CD30 [2] = target: T1, human CD30; test: flow cytometry, HDLM-2 cells, experiment N = 2
human CD30 [3] = target: T1, human CD30; test: flow cytometry, Expi293F cells transfected with human CD30
Experimental: (§1) Cells (3×10⁴ cells/well) were incubated in polystyrene 96-well round-bottom plates (Greiner bio-one, cat. no. 650180) with serial dilutions of antibodies (ranging from 0.005 to 10 μg/mL in 3-fold dilution steps) in 100 μL staining buffer at 4° C. for 30 min. Experiments were performed in technical duplicate. After washing twice in staining buffer, cells were incubated in 50 μL secondary antibody at 4° C. for 30 min. As a secondary antibody, R-PE-conjugated goat-anti-human IgG (Jackson ImmunoResearch, UK; cat. no. 109⁻¹¹⁶-098) diluted 1:400 in staining buffer was used. Cells were washed twice in staining buffer, resuspended in 30 μL staining buffer containing 0.4% EDTA and analyzed on an iQue Screener (Intellicyt Corporation, USA). Binding curves were analyzed using non-linear regression (sigmoidal dose-response with variable slope) using GraphPad Prism V9.0.0 software (GraphPad Software, San Diego, CA, USA).

[4] = target: T2, rhesus monkey (Macaca mulatta) CD30; test: flow cytometry, Expi293F cells transfected with rhesus monkey CD30
Experimental: as §1

human CD30 [5] = target: T1, human CD30; test: flow cytometry, HDLM-2 cells, experiment N = 1
human CD30 [6] = target: T1, human CD30; test: flow cytometry, KM-H2 cells (HL), range of 3 tests
Experimental: (§2) Cells (3×10⁴ cells/well) were incubated in polystyrene 96-well round-bottom plates (Greiner bio-one, cat. no. 650180) with serial dilutions of antibodies (range 0.0046 to 10 μg/mL in 3-fold dilution steps) in 50 μL staining buffer at 4° C. for 30 min. After washing twice in staining buffer, cells were incubated with 50 μL secondary antibody at 4° C. for 30 min. […] Next, cells were washed twice in staining buffer, resuspended in 100 μL staining buffer supplemented with TO-PRO-3 iodide (Thermo Fisher Scientific; cat. no. T3605; 1:8000 dilution) and analyzed on a FACSCelesta flow cytometer (BD Biosciences, USA). Live cells were gated based on FSC/SSC and absence of TOPRO-3 staining. Binding curves were analyzed by non-linear regression of log-transformed data (sigmoidal dose-response with variable slope, four parameters) using GraphPad Prism V7.02 software (GraphPad Software, San Diego, CA, USA).

human CD30 [7] = target: T1, human CD30; test: flow cytometry, L-1236 cells (HL), range of 3 tests
Experimental: as §2

human CD30 [8] = target: T1, human CD30; test: flow cytometry, L-428 cells (HL), average of 2 tests
Experimental: as §2

human CD30 [9] = target: T1, human CD30; test: flow cytometry, HH cells (CTCL), average of 3 tests
Experimental: as §2

human CD30 [10] = target: T1, human CD30; test: flow cytometry, SUP-T1 cells (TLL), range of 2 tests
Experimental: as §2

| Binder | EC50 (human CD30 [1]) | EC50 (human CD30 [2]) | EC50 (read off the curve) (human CD30 [3]) | EC50 (read off the curve) [4] | EC50 (human CD30 [5]) | EC50 (human CD30 [6]) | EC50 (human CD30 [7]) | EC50 (human CD30 [8]) | EC50 (human CD30 [9]) | EC50 (human CD30 [10]) |
| --- | --- | --- | --- | --- | --- | --- | --- | --- | --- | --- |
| bsG1-huCD3-FEALxCD30-MDX060-FEAR (bispecific antibody, human IgG1, kappa, lambda, also called bsG1-huCD3xCD30-MDX060) heavy 1: not shown light 1: not shown heavy 2: QVQLQQWGAGLLKPSETLSLTCAVYGGSFSAYYWSWIRQPPGKGLEWIGDINHGGGTNYNPSLKSRVTISVDTSKNQFSLKLNSVTAADTAVYYCASLTAYWGQGSLVTVSSASTKGPSVFPLAPSSKSTSGGTAALGCLVKDYFPEPVTVSWNSGALTSGVHTFPAVLQSSGLYSLSSVVTVPSSSLGTQTYICNVNHKPSNTKVDKRVEPKSCDKTHTCPPCPAPEFEGGPSVFLFPPKPKDTLMISRTPEVTCVVVAVSHEDPEVKFNWYVDGVEVHNAKTKPREEQYNSTYRVVSVLTVLHQDWLNGKEYKCKVSNKALPAPIEKTISKAKGQPREPQVYTLPPSREEMTKNQVSLTCLVKGFYPSDIAVEWESNGQPENNYKTTPPVLDSDGSFFLYSRLTVDKSRWQQGNVFSCSVMHEALHNHYTQKSLSLSPG light 2: DIQMTQSPTSLSASVGDRVTITCRASQGISSWLTWYQQKPEKAPKSLIYAASSLQSGVPSRFSGSGSGTDFTLTISSLQPEDFATYYCQQYDSYPITFGQGTRLEIKRTVAAPSVFIFPPSDEQLKSGTASVVCLLNNFYPREAKVQWKVDNALQSGNSQESVTEQDSKDSTYSLSSTLTLSKADYEKHKVYACEVTHQGLSSPVTKSFNRGEC | 0.0735 µg/mL | 0.12 µg/mL | ~0.09 µg/mL | ~0.2 µg/mL | 0.145 µg/mL |  |  |  |  |  |
| bsG1-huCD3-FEALxCD30-MDX060-FERR (bispecific antibody, human IgG1, kappa, lambda, Bispecific IgG1 made by controlled Fab-arm exchange; also called bsIgG1-huCD3-FEALxCD30-MDX060-FERR; bsG1-huCD3×CD30-MDX060) heavy 1: not shown light 1: not shown heavy 2: QVQLQQWGAGLLKPSETLSLTCAVYGGSFSAYYWSWIRQPPGKGLEWIGDINHGGGTNYNPSLKSRVTISVDTSKNQFSLKLNSVTAADTAVYYCASLTAYWGQGSLVTVSSASTKGPSVFPLAPSSKSTSGGTAALGCLVKDYFPEPVTVSWNSGALTSGVHTFPAVLQSSGLYSLSSVVTVPSSSLGTQTYICNVNHKPSNTKVDKRVEPKSCDKTHTCPPCPAPEFERGPSVFLFPPKPKDTLMISRTPEVTCVVVDVSHEDPEVKFNWYVDGVEVHNAKTKPREEQYNSTYRVVSVLTVLHQDWLNGKEYKCKVSNKALPAPIEKTISKAKGQPREPQVYTLPPSREEMTKNQVSLTCLVKGFYPSDIAVEWESNGQPENNYKTTPPVLDSDGSFFLYSRLTVDKSRWQQGNVFSCSVMHEALHNHYTQKSLSLSPG light 2: DIQMTQSPTSLSASVGDRVTITCRASQGISSWLTWYQQKPEKAPKSLIYAASSLQSGVPSRFSGSGSGTDFTLTISSLQPEDFATYYCQQYDSYPITFGQGTRLEIKRTVAAPSVFIFPPSDEQLKSGTASVVCLLNNFYPREAKVQWKVDNALQSGNSQESVTEQDSKDSTYSLSSTLTLSKADYEKHKVYACEVTHQGLSSPVTKSFNRGEC |  |  |  |  |  | 0.141 to 0.182 µg/mL | 0.163 to 0.225 µg/mL | 0.174 µg/mL | 0.195 µg/mL | 0.257 to 0.434 µg/mL |
